Results reported in publication PMC11410943.

Test system: Cn1c(=O)ccc2ccc(F)c(CCNC[C@H]3CN(c4cnc5c(n4)NC(=O)CO5)C(=O)O3)c21
Assay: MATE2-K transport in HEK293 cells
Format: in vitro ADME, human
Settings: other: HEK293 cells; 37.0 °C

## MATE2-K (Homo sapiens)
  Km: 469 µM
  Vmax: 111 pmol/mg/min
